We go through 8 molecules from patent US20210301005A1 (Genentech, published 2021).

In test [1] the target is T1, human TGFβ2, mature receptor-binding domain (human, UniProt P09858 303-414 (pig entry), The mature TGFβ2 is a disulfide-linked homodimer of this 112-residue chain. The 4A11 epitope spans both monomers (p-1207).).
T1 construct: Peprotech; also called TGFb2
T1 sequence: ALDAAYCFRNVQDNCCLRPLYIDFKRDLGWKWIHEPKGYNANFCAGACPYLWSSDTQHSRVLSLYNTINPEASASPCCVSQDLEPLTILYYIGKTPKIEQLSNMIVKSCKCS
The test can be described thus: BIAcore T200. For orientation: In SPR one partner is held on a chip, and binding of the other changes the refractive index at the surface.

The target in test [2] is T2, human TGFβ3, mature dimeric form (human, UniProt P10600 301-412).
T2 construct: Peprotech, expressed in E. coli; also called TGFb3
T2 sequence: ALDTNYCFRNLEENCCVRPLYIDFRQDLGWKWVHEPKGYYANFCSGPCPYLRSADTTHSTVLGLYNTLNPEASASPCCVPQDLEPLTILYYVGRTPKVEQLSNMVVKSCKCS
The test can be described thus: BIAcore T200.

The target of test [3] is T1, human TGFβ2, mature receptor-binding …. The test can be described thus: cell-based or functional assay.
The target of test [4] is T2, human TGFβ3, mature dimeric form. Put plainly: cell-based or functional assay.
Test [5] addresses T1, human TGFβ2, mature receptor-binding …. Put plainly: cell-based or functional assay. The source holds these as a separate data set.
In test [6] the target is T2, human TGFβ3, mature dimeric form. Put plainly: cell-based or functional assay. This is another data set of the same source.
Test [7] deals with T3, human TGFβ1, mature receptor-binding domain (human, UniProt P01137 279-390). Put plainly: cell-based or functional assay.
Test [8] deals with T1, human TGFβ2, mature receptor-binding …. Put plainly: BIAcore T200. The procedure: (§1) For binding affinity determinations of all humanized 2A10 antibodies, Surface Plasmon Resonance (SPR) measurement with a BIAcore™-T200 instrument was used. Briefly, series S CM5 biosensor chip with protein A was first applied to capture each humanized 2A10 variant to achieve approximately 100 response units (RU) on each flow cell, following by injection of 3-fold serial dilutions of human TGFβ1, TGFβ2 or TGFβ3 (0.02 nM to 5 nM) in HBS-EP buffer (0.01M HEPES pH 7.4, 0.15M NaCl, 3 mM EDTA and 0.05% v/v surfactant P20) at 25° C. with a flow rate of 50 μl/min for kinetics measurement. Association rates (ko.) and dissociation rates (koff) were calculated using a simple one-to-one Langmuir binding model (BIAcore T200 evaluation software version 2.0) to determine the equilibrium dissociation constant (KD), which was calculated as the ratio koff/kₒₙ.
(§2) Binding affinity determinations of all humanized 4A11 antibodies were performed using SPR measurement with a BIAcore™-T200 instrument, as described above in Example 6 ([…]).
This is another data set of the same source.

Test [9] deals with T2, human TGFβ3, mature dimeric form. The test can be described thus: BIAcore T200. The procedure:
as §1, §2
This is another data set of the same source.

Test [10] concerns the target T1, human TGFβ2, mature receptor-binding …. Put plainly: cell-based or functional assay. This is another data set of the same source.
The target in test [11] is T2, human TGFβ3, mature dimeric form. The test can be described thus: cell-based or functional assay. The source holds these as a separate data set.
The target in test [12] is T3, human TGFβ1, mature receptor-binding …. The test can be described thus: cell-based or functional assay. The source holds these as a separate data set.
For test [13], the target named is T1, human TGFβ2, mature receptor-binding …. Put plainly: cell-based or functional assay. This is another data set of the same source.
For test [14], the target named is T2, human TGFβ3, mature dimeric form. Put plainly: cell-based or functional assay. The source holds these as a separate data set.
Test [15] has as its target T3, human TGFβ1, mature receptor-binding …. Put plainly: cell-based or functional assay. The source holds these as a separate data set.
In test [16] the target is T1, human TGFβ2, mature receptor-binding …. Put plainly: BIAcore T200. The source holds these as a separate data set.
For test [17] the target is unchanged. The test can be described thus: cell-based or functional assay. This is another data set of the same source.
Test [18] has as its target T2, human TGFβ3, mature dimeric form. The test can be described thus: cell-based or functional assay. This is another data set of the same source.
Test [19] has as its target T3, human TGFβ1, mature receptor-binding …. Put plainly: cell-based or functional assay. This is another data set of the same source.
Test [20] concerns the target T1, human TGFβ2, mature receptor-binding …. The test can be described thus: BIAcore T200. As for the experimental part:
as §1
The source holds these as a separate data set.

Test [21] concerns the target T2, human TGFβ3, mature dimeric form. The test can be described thus: BIAcore T200. As for the experimental part:
as §1
The source holds these as a separate data set.

Like-named read-outs stand apart in the source and are kept apart here. Some results are limits rather than exact numbers.

T3 sequence (P01137 279-390 limits assumed): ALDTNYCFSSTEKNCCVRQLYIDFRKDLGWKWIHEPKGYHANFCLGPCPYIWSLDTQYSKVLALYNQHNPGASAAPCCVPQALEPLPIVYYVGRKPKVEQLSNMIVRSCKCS

B1: h4A11.v7.11 (antibody, human IgG1, kappa, N297G, V domains shown)
VH: EQQLQESGPGLVKPSETLSLTCTVTGFSLSSYTVNWVRQPAGKGLEWIGYISYGGSAYYASWANGRFTISVDSSKNQVSLKLSSVTAADTAVYFCARHMQVGGAPTGSMAAFDPWGPGTLVTVSS
VL: EAVLTQSPGTLSLSPGERATLSCQSSQSVYNNNYLSWFQQKPGQPPRLLIYGASTLTSGVPDRFSGSGSGTDFTLTISRLEPEDFAVYYCAGGYSGSSDKYAFGGGTKVEIKR
Take B1: the “fold drop in binding against h4A11.v7” value amounted to 6 fold in test [1] and 2 fold in test [2]. In addition, the “fold loss of blocking against h4A11.v7” value in test [3] was above 2000 fold; in [4], 118 fold. For the same molecule, the “HEKBlue TGFβ blocking IC50” value in [5] was above 200000 pM; in test [6], 3530 pM; in [7], above 200000 pM. Also, the Kd (as a rule, the constant that tells how readily two partners part at equilibrium) came out at 40.1 pM in test [8] and 21.4 pM in test [9].

B2: h4A11.v7.13 (antibody, human IgG1, kappa, N297G, V domains shown)
VH: EQQLQESGPGLVKPSETLSLTCTVTGFSLSSYTVNWVRQPAGKGLEWIGYISYGGSAYYASWANGRFTISKDSSKNQFSLKLSSVTAADTAVYFCARHMQVGGAPTGSMAAFDPWGPGTLVTVSS
VL: EAVLTQSPGTLSLSPGERATLSCQSSQSVYNNNYLSWFQQKPGQPPRLLIYGASTLTSGVPDRFSGSGSGTDFTLTISRLEPEDFAVYYCAGGYSGSSDKYAFGGGTKVEIKR
In the case of B2, the “fold drop in binding against h4A11.v7” value in [1] was determined as 2.5 fold. Besides, the figures for the “HEKBlue TGFβ blocking IC50” value in test [5], in test [6] and in test [7] were 30 pM, 50 pM and above 200000 pM, respectively. The Kd was 15.9 pM in test [8] and 8.9 pM in test [9].

B3: h4A11.v7.5 (antibody, V domains shown)
VH: EQQLQESGPGLVKPSETLSLTCTVTGFSLSSYTVNWVRQPAGKGLEWIGYISYGGSAYYASWANGRFTISKDSSKNQVSLKLSSVTAADTAVYFCARHMQVGGAPTGSMAAFDPWGPGTLVTVSS
VL: EAVLTQSPGTLSLSPGERATLSCQSSQSVYNNNYLSWYQQKPGQPPRLLIYGASTLTSGVPDRFSGSGSGTDFTLTISRLEPEDFAVYYCAGGYSGSSDKYAFGGGTKVEIK
In the case of B3, in test [1], the “fold drop in binding against h4A11.v7” value was around 2 fold. Besides, the “fold loss of blocking against h4A11.v7” value in [3] is around 2 fold. The “HEKBlue TGFβ blocking IC50” value in test [5] was 160 pM; in [6], 40 pM; in [7], above 200000 pM. Moreover, the results for the Kd in test [8] and in test [9] were 9.2 pM and 9.3 pM, respectively.

B4: h6F12.v1 (antibody, human IgG1, kappa, N297G, V domains shown)
VH: EVTLKESGPVLVKPTETLTLTCTVSGFSLTTYNVHWVRQPPGKALEWMGLIWNTGGTRYNSALKSRLTISKDTSKSQVVLTMTNMDPVDTATYYCARDPVPNKWHFDFWGPGTLVTVSS
VL: DIQMTQSPSTLSASVGDRVTITCLASEDIYSNLAWYQQKPGKSPKLLIYDARSLQDGVPSRFSGSESGPEYTLTISSLQPDDFATYFCQQHHAYPFTFGQGTKVEIKR
With B4, the “HEKBlue TGFβ blocking IC50” value in test [10] is 20 pM; in test [11], above 200000 pM; in [12], above 200000 pM; in test [13] it was 20 pM; in test [14] it was above 200000 pM; in [15] it was above 200000 pM. For the same molecule, in [3], the “fold drop in blocking against r6F12” value was in the range of 2.5 to 5 fold. The same molecule registered a Kd in test [16] of at most 0.5 pM.

B5: h2A10.v1 (antibody, human IgG1, kappa, N297G, V domains shown)
VH: EVQLVESGGGLVQPGPSLRLSCTASGFDFNSYGMSWVRQAPGKGLELVADIVSKTYNYTTYYSDSVKDRFTISRDDSKSIVYLQMNSLKTEDTAVYYCTVAPGGSFDYWGQGTLVTVSS
VL: DIQLTQSPSSLSASVGDRVTITCRASQSVSISRFNLMHWYQHKPGKQPKLLIYRASNLASGIPSRFSGSGSGTDFTLTISSLQPEDFATYYCQHSRESPWTFGGGTKVEIKR
notes: also called humanized 2A10 version 1
Regarding B5, the binding result in [1] and in test [2] was “binds” throughout.

B6: h2A10.v2.N54Q (antibody, human IgG1, kappa, N297G, V domains shown)
VH: EVQLLESGGGLVQPGGSLRLSCAASGFDFNSYGMSWVRQAPGKGLELVADIVSKTYQYTTYYSDSVKDRFTISRDDSKSTVYLQMNSLRAEDTAVYYCTVAPGGSFDYWGQGTLVTVSS
VL: DIQLTQSPSSLSASVGDRVTITCRASQSVSISRFNLMHWYQHKPGKQPKLLIYRASNLASGIPSRFSGSGSGTDFTLTISSLQPEDFATYYCQHSRESPWTFGGGTKVEIKR
For B6, the “fold drop in TGFβ3 binding against h2A10.v2” value in test [2] is below 2 fold. Besides, the “HEKBlue TGFβ blocking IC50” value was above 200000 pM in [17], 10 pM in [18] and above 200000 pM in test [19]. Further, the Kd in test [20] turned out to be 378 pM; in test [21] it was 2.5 pM.

B7: h2A10.v2.N54S (antibody, human IgG1, kappa, N297G, V domains shown)
VH: EVQLLESGGGLVQPGGSLRLSCAASGFDFNSYGMSWVRQAPGKGLELVADIVSKTYSYTTYYSDSVKDRFTISRDDSKSTVYLQMNSLRAEDTAVYYCTVAPGGSFDYWGQGTLVTVSS
VL: DIQLTQSPSSLSASVGDRVTITCRASQSVSISRFNLMHWYQHKPGKQPKLLIYRASNLASGIPSRFSGSGSGTDFTLTISSLQPEDFATYYCQHSRESPWTFGGGTKVEIKR
Regarding B7, the “fold drop in TGFβ3 binding against h2A10.v2” value in test [2] was below 2 fold. In addition, the “HEKBlue TGFβ blocking IC50” value is above 200000 pM in [17], 10 pM in test [18] and above 200000 pM in test [19]. Also, the Kd is 425 pM in [20] and 2.4 pM in [21].

B8: h2A10.v2.T56A (antibody, human IgG1, kappa, N297G, V domains shown)
VH: EVQLLESGGGLVQPGGSLRLSCAASGFDFNSYGMSWVRQAPGKGLELVADIVSKTYNYATYYSDSVKDRFTISRDDSKSTVYLQMNSLRAEDTAVYYCTVAPGGSFDYWGQGTLVTVSS
VL: DIQLTQSPSSLSASVGDRVTITCRASQSVSISRFNLMHWYQHKPGKQPKLLIYRASNLASGIPSRFSGSGSGTDFTLTISSLQPEDFATYYCQHSRESPWTFGGGTKVEIKR
For the molecule B8, the results for the “HEKBlue TGFβ blocking IC50” value in test [17], in test [18] and in test [19] were above 200000 pM, 10 pM and above 200000 pM, respectively. Besides, the Kd stood at 247 pM in test [20] and 1 pM in [21].
